Measured values: US20230381229A1 (ALPINE IMMUNE SCIENCES, INC., published 2023)
Substitutions are numbered along the chain they refer to. Names and notes keep the numbering of the source.

T1: TIGIT (human)
T1 chain: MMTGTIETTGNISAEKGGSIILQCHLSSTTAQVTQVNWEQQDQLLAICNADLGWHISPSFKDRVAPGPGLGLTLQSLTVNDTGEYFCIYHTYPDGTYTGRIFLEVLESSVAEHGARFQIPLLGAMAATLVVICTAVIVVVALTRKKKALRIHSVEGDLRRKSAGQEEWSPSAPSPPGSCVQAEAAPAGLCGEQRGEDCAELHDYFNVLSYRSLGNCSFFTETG

T2: human TIGIT (human)
T2 chain: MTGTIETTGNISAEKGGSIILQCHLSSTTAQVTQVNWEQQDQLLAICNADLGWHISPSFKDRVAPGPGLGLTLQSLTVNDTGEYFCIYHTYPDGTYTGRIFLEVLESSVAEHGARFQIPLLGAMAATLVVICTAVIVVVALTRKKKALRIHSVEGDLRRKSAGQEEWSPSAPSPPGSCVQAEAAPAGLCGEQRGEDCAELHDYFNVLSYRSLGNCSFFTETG

B1: variant CD155 IgV-Fc V9L, P18L, L79P, M90I, F91S, T102S, L104M, G111R (Fc fusion)
chain: WPPPGTGDLVVQAPTQVLGFLGDSVTLPCYLQVPNMEVTHVSQLTWARHGESGSMAVFHQTQGPSYSESKRLEFVAARPGAELRNASLRISGLRVEDEGNYSCMFVTFPQRSRSVDIWLRVLGSGGGGSEPKSSDKTHTCPPCPAPEAEGAPSVFLFPPKPKDTLMISRTPEVTCVVVDVSHEDPEVKFNWYVDGVEVHNAKTKPREEQYNSTYRVVSVLTVLHQDWLNGKEYKCKVSNKALPAPIEKTISKAKGQPREPQVYTLPPSRDELTKNQVSLTCLVKGFYPSDIAVEWESNGQPENNYKTTPPVLDSDGSFFLYSKLTVDKSRWQQGNVFSCSVMHEALHNHYTQKSLSLSPGK
B2: variant CD155 IgV-Fc V9I, P18T, D23G, L79P, F91S, G111R (Fc fusion)
chain: B1 chain with L9I, L18T, D23G, I90M, S102T, M104L
B3: variant CD155 IgV-Fc P18T, M36T, S65A, S67E, L79Q, A81T, F91S, G111R (Fc fusion)
chain: B1 chain with L9V, L18T, M36T, S65A, S67E, P79Q, A81T, I90M, S102T, M104L
B4: Full length ECD of PD-L2 (ligand)
chain: LFTVTVPKELYIIEHGSNVTLECNFDTGSHVNLGAITASLQKVENDTSPHRERATLLEEQLPLGKASFHIPQVQVRDEGQYQCIIIYGVAWDYKYLTLKVKASYRKINTHILKVPETDEVELTCQATGYPLAEVSWPNVSVPANTSHSRTPEGLYQVTSVLRLKPPPGRNFSCVFWNTHVRELTLASIDLQSQMEPRTHPT
B5: variant CD155 IgV-Fc V9L, V11M, P18S, N35S, S54G, Q62K, L79P, L104M, T107M, V115M (Fc fusion)
chain: WPPPGTGDLVMQAPTQVSGFLGDSVTLPCYLQVPSMEVTHVSQLTWARHGESGGMAVFHQTKGPSYSESKRLEFVAARPGAELRNASLRMFGLRVEDEGNYTCMFVMFPQGSRSMDIWLRVLGSGGGGSEPKSSDKTHTCPPCPAPEAEGAPSVFLFPPKPKDTLMISRTPEVTCVVVDVSHEDPEVKFNWYVDGVEVHNAKTKPREEQYNSTYRVVSVLTVLHQDWLNGKEYKCKVSNKALPAPIEKTISKAKGQPREPQVYTLPPSRDELTKNQVSLTCLVKGFYPSDIAVEWESNGQPENNYKTTPPVLDSDGSFFLYSKLTVDKSRWQQGNVFSCSVMHEALHNHYTQKSLSLSPGK
B6: variant CD155 IgV-Fc P18C, T26M, L44V, M55I, Q62K, L79P, F91S, L104M, T107M (Fc fusion)
chain: B5 chain with L9V, M11V, S18C, T26M, S35N, L44V, G54S, M55I, F91S, M115V
B7: variant CD155 IgV-Fc V9L, P18T, Q62R, L79P, F91S, L104M, G111R (Fc fusion)
chain: B1 chain with L18T, Q62R, I90M, S102T

How the values were obtained:
TIGIT = target: T1, TIGIT; experiment: cell-based or functional assay
PD-1 = PD-1 (human); experiment: cell-based or functional assay
Chain of PD-1 (human) (chain, as listed by the source): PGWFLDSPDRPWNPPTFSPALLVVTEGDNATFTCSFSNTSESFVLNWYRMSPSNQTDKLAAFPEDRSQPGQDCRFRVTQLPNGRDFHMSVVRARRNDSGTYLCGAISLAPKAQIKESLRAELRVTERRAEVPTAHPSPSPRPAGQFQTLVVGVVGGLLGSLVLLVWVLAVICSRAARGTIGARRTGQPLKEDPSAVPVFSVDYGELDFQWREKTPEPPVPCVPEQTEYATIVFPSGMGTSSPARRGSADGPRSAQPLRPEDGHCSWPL

human TIGIT = target: T2, human TIGIT; experiment: flow cytometry, transfected HEK293 cells

| Binder | IL-2 luciferase reporter, Normalized Fold Change from CD155-ECD, proteins at 50 nM (TIGIT) | also measured |
| --- | --- | --- |
| B1 | 2.4 fold | – |
| B2 | 2 fold | – |
| B3 | -0.9 fold | – |
| B4 | – | IFN gamma levels pg/ml (MLR) (PD-1): 1170 pg/mL |
| B5 | – | MFI at 25 nM (human TIGIT): 3000 |
| B6 | 1.6 fold | – |
| B7 | 7.4 fold | – |
